The results in this text go back to paper PMC6650474.

This assay addresses Skeletal muscle actin (chicken) (UniProt P68139).

“Mouse utrophin residues 1-H416 with C-terminal biotin and FLAG tags (from UniProt E9Q6R7 1-416) (domain or fragment)” gave a KS of the utrophin-based loaded in vitro motility assay (utrophin concentration that arrests motion), with PfMyoA K764E on the surface, 30 °C of 3.04 nM; a KS of the utrophin-based loaded in vitro motility assay (utrophin concentration that arrests motion), with PfMyoA S19A on the surface, 30 °C of 2.42 nM; a KS of the utrophin-based loaded in vitro motility assay (utrophin concentration that arrests motion), with PfMyoA WT on the surface, 30 °C of 1.4 nM; a KS of the utrophin-based loaded in vitro motility assay (utrophin concentration that arrests motion), with PfMyoA ∆N on the surface, 30 °C of 10.8 nM.
